Measured values from paper doi:10.1101/2025.10.20.683367.

What was measured:
[1] = target: Methanoculleus sp. schizorhodopsin (Methanoculleus sp. (metagenome-assembled genome)); assay: cryo-EM structure
[2] = target: Methanoculleus taiwanensis schizorhodopsin (Methanoculleus taiwanensis); assay: cryo-EM structure

Substance: Methanoculleus sp. schizorhodopsin (natural protein)
- stoichiometry N [1]: 3

Substance: Methanoculleus taiwanensis schizorhodopsin (natural protein)
- stoichiometry N [2]: 3
